The target of one assay is rat ANGPTL3/8 complex (rat, UniProt F7FHP0 17-446). Description: cell-based or functional assay.
For assay [1], the target named is T1, human ANGPTL3/8 complex (human, UniProt Q9Y5C1 17-460; Q6UXH0 22-198, limits assumed).
T1 sequence 1: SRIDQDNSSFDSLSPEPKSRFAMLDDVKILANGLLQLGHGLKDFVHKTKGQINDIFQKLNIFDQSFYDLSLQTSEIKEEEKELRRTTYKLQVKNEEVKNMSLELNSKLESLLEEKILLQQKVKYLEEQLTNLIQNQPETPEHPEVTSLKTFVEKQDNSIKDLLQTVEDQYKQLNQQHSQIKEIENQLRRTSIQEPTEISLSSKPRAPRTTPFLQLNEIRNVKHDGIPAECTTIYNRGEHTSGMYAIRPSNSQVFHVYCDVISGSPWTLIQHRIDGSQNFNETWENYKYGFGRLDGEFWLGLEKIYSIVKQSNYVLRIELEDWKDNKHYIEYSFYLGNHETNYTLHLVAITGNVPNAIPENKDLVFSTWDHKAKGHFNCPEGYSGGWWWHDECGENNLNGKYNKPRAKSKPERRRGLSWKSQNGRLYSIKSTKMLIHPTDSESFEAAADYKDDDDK
T1 sequence 2: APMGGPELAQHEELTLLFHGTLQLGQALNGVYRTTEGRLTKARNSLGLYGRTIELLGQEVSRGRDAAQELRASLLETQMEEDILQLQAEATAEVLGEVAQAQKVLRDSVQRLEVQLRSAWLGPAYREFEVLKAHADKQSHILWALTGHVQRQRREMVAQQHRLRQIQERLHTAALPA
Nature of the assay: cell-based or functional assay.

Assay [2] deals with T2, cynomolgus ANGPTL3/8 complex (cynomolgus, UniProt A0A2K5UDC5 17-460; A0A2K5WWS3 22-198).
T2 sequence 1: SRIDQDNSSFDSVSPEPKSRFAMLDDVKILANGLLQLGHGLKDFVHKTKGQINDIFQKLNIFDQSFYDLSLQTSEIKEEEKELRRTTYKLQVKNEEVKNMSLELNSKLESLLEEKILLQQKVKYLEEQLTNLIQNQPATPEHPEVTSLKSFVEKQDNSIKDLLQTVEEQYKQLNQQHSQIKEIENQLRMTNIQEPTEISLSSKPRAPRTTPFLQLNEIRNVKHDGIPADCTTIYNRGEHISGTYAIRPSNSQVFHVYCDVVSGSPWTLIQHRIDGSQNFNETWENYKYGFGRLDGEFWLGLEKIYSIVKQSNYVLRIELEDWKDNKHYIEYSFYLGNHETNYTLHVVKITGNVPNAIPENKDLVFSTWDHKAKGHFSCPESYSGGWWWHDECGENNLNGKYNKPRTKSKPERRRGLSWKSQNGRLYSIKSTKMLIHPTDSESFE
T2 sequence 2: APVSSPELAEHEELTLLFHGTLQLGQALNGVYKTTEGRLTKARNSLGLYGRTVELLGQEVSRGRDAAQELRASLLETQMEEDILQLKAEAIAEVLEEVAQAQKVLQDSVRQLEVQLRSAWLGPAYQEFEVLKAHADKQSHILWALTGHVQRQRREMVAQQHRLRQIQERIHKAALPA
Nature of the assay: cell-based or functional assay.

The target in assay [3] is T3, mouse ANGPTL3/8 complex (mouse, UniProt Q9R182 17-455; Q8R1L8 16-198, limits assumed).
T3 sequence (looked up) 1: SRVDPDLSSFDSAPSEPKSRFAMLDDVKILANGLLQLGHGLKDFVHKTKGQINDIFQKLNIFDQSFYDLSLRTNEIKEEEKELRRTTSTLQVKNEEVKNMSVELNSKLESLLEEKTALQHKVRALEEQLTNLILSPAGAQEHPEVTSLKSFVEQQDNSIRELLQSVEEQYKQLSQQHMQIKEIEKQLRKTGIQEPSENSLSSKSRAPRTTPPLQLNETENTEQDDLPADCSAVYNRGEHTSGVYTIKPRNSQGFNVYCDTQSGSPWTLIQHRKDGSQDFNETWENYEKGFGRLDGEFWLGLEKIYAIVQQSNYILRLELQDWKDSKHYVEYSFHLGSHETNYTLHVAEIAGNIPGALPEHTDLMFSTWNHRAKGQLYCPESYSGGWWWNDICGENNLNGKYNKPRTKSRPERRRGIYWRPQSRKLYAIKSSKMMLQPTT
T3 sequence (looked up) 2: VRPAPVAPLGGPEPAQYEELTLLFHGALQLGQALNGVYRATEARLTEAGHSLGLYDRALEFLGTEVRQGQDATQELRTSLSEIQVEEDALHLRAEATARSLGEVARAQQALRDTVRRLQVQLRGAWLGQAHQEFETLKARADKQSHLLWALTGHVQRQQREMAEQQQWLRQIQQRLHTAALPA
Description: cell-based or functional assay.

Assay [4] has as its target T1, human ANGPTL3/8 complex. Nature of the assay: SPR, Biacore T200; Ab captured on Human Fab Binder, complex injected; pH 7.4, 25 C. (In SPR one partner is held on a chip, and binding of the other changes the refractive index at the surface.)
For assay [5], the target named is T2, cynomolgus ANGPTL3/8 complex. The assay is described as above.
For assay [6], the target named is T3, mouse ANGPTL3/8 complex. Described as above.
Assay [7] has as its target T2, cynomolgus ANGPTL3/8 complex. The description is as above. The source holds these as a separate data set.

Like-named read-outs stand apart in the source and are kept apart here.

Results on three molecules are retold here after patent US20200199213A1 (Eli Lilly, published 2020).

rat ANGPTL3/8 complex, sequence (F7FHP0 entry or part of it, one chain of several): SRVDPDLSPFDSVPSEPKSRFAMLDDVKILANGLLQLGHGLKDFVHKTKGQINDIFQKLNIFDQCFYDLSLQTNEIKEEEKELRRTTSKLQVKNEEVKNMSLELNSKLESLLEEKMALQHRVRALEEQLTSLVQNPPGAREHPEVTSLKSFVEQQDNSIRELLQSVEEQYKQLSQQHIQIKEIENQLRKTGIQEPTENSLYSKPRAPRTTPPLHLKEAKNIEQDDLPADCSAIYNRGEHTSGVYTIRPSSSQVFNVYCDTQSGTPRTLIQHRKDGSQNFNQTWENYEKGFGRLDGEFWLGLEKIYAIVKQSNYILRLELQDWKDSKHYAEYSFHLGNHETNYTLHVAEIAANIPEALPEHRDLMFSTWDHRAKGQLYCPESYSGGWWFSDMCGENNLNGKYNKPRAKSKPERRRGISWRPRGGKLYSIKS

B1: anti-ANGPTL3/8 complex Ab having a LC of SEQ ID NO:5 and a HC of SEQ ID NO:6 (antibody, human IgG4 S228P, kappa, F234A L235A, V domains shown)
VH: QVTLKESGPTLVKPTQTLTLTCTFSGFSLSISGVGVGWIRQPPGKALEWLALIYRNDDKRYSPSLKSRLTITKDTSKNQVVLTLTNMDPVDTATYYCARTYSSGWYGNWFDPWGQGTLVTVSS
VL: DIVMTQTPLSLPVTPGEPASISCRSSQSLLDSDDGNTYLDWYLQKPGQSPQLLIYMLSYRASGVPDRFSGSGSGTDFTLKISRVEAEDVGIYYCMQRIEFPLTFGGGTKVEIKR
notes: In the ELISA assays tested as IgG from CHO supernatants; also called the Ab
On to B1, for which the “% Max Derepression of LPL” value worked out at 105% with rat ANGPTL3/8 complex, 102% with human ANGPTL3/8 complex [1], 96% in assay [2] and 103% with mouse ANGPTL3/8 complex [3]. For the same molecule, the “Ab EC50 (nM), derepression of LPL” value in the assay with rat ANGPTL3/8 complex turned out to be 2.77 nM; in the assay with human ANGPTL3/8 complex [1], 0.28 nM; in assay [2], 1.31 nM; with mouse ANGPTL3/8 complex [3] it was 1.38 nM.

B2: Ab with LC variant having a E99Q mutation (SEQ ID NO:25) and a HC of SEQ ID NO:6 (antibody, human IgG4 S228P, kappa, F234A L235A, V domains shown)
VH: QVTLKESGPTLVKPTQTLTLTCTFSGFSLSISGVGVGWIRQPPGKALEWLALIYRNDDKRYSPSLKSRLTITKDTSKNQVVLTLTNMDPVDTATYYCARTYSSGWYGNWFDPWGQGTLVTVSS
VL: DIVMTQTPLSLPVTPGEPASISCRSSQSLLDSDDGNTYLDWYLQKPGQSPQLLIYMLSYRASGVPDRFSGSGSGTDFTLKISRVEAEDVGIYYCMQRIQFPLTFGGGTKVEIKR
notes: also called E99Q Variant Ab; E99Q Ab
Usually Kd stands for the free concentration of one partner at which half of the binding sites on the other are occupied at equilibrium, for simple one-to-one binding. Low readings indicate higher affinity, high ones lower affinity. The term koff denotes a measure of how fast the partners let go of each other. In general, kon refers to the second-order rate constant of association. Regarding B2, the dissociation constant (Kd) in the assay with human ANGPTL3/8 complex [4] came out at 48.4 pM; in assay [5], 116 pM; with mouse ANGPTL3/8 complex [6], 254 pM. For the same molecule, the off-rate constant (koff) with human ANGPTL3/8 complex [4] turned out to be 3.26e-05 s⁻¹; in assay [5], 7.23e-05 s⁻¹; with mouse ANGPTL3/8 complex [6], 0.000151 s⁻¹. Also, the values for the kon (with human ANGPTL3/8 complex [4]; in assay [5]; in the assay with mouse ANGPTL3/8 complex [6]) were 674000 M⁻¹ s⁻¹, 620000 M⁻¹ s⁻¹ and 596000 M⁻¹ s⁻¹, respectively.

B3: Ab with LC variant having a D31S mutation (SEQ ID NO:21) and a HC of SEQ ID NO:6 (antibody, human IgG4 S228P, kappa, F234A L235A, V domains shown)
VH: QVTLKESGPTLVKPTQTLTLTCTFSGFSLSISGVGVGWIRQPPGKALEWLALIYRNDDKRYSPSLKSRLTITKDTSKNQVVLTLTNMDPVDTATYYCARTYSSGWYGNWFDPWGQGTLVTVSS
VL: DIVMTQTPLSLPVTPGEPASISCRSSQSLLSSDDGNTYLDWYLQKPGQSPQLLIYMLSYRASGVPDRFSGSGSGTDFTLKISRVEAEDVGIYYCMQRIEFPLTFGGGTKVEIKR
notes: also called D31S Variant Ab; D31S Ab
Turning to B3, in assay [7], the affinity, expressed as Kd, was 365 pM; the koff was found to be 0.000168 s⁻¹; the on-rate constant (kon) worked out at 462000 M⁻¹ s⁻¹.
